Here are results for 1 molecule from EP4442707.

In assay [1] the target is T1, pig serum albumin (Sus scrofa, UniProt P08835).
T1 chain: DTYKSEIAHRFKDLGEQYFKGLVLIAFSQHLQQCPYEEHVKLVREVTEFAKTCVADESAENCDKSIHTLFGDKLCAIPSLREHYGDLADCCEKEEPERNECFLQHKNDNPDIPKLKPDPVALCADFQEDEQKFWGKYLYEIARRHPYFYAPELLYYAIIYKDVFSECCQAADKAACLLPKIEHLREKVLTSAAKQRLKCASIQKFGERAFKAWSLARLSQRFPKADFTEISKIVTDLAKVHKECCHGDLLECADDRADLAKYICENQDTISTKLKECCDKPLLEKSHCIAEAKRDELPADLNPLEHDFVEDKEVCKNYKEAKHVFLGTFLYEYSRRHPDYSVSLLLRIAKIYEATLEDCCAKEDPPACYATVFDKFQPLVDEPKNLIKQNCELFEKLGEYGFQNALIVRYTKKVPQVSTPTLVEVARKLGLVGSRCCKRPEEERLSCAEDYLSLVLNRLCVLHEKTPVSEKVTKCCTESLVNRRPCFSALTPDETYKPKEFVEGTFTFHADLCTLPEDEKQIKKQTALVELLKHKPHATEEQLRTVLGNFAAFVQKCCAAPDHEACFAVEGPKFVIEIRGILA
The experiment in a line: SPR pH 7.4.

The target in assay [2] is mouse serum albumin (Mus musculus, UniProt P07724). The assay is described as follows: SPR pH 7.4.
Assay [3] has as its target T2, human serum albumin (Homo sapiens, UniProt P02768). The experiment in a line: SPR pH 7.4.
In assay [4] the target is T3, dog serum albumin (Canis lupus familiaris, UniProt P49822).
T3 chain: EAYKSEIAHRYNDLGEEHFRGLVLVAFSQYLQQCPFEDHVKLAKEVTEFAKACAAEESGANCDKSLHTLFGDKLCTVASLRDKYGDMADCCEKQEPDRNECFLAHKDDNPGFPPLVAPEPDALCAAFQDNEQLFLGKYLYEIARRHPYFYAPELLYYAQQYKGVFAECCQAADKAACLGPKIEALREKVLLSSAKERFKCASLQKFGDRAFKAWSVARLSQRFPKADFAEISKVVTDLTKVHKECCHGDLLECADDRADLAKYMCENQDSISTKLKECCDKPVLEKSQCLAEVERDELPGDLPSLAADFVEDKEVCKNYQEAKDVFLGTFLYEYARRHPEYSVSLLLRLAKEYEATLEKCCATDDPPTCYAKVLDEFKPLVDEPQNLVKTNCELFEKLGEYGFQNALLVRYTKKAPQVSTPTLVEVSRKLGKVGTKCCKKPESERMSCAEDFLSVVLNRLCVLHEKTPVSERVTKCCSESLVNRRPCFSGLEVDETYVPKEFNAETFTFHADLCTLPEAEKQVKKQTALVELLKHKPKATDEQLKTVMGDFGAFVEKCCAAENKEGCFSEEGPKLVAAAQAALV
The assay is described as follows: SPR pH 7.4.

In assay [5] the target is T4, sheep serum albumin (Ovis aries, UniProt P14639).
T4 chain: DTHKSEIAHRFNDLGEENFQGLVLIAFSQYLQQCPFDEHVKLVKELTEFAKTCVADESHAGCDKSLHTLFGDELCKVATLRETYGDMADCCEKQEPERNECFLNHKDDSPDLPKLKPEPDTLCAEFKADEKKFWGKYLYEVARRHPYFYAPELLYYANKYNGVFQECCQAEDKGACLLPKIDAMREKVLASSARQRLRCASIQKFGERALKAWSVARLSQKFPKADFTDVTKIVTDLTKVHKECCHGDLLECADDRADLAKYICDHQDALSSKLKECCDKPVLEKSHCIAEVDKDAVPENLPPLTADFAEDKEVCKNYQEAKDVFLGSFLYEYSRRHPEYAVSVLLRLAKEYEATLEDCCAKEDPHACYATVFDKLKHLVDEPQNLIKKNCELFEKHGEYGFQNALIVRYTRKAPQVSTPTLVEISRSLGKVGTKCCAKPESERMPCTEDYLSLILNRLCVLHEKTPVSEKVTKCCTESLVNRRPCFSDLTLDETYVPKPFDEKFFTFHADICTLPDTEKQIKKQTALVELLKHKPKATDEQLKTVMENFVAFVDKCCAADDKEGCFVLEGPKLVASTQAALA
The assay is described as follows: SPR pH 7.4.

Assay [6] has as its target T2, human serum albumin. The experiment in a line: SPR pH 6.0.
Assay [7] deals with T2, human serum albumin. The assay is described as follows: SPR pH 5.0.
Assay [8] addresses bovine serum albumin (Bos taurus, UniProt P02769). The experiment in a line: SPR pH 7.4.
Assay [9] has as its target T5, rat serum albumin (Rattus norvegicus, UniProt P02770).
T5 chain: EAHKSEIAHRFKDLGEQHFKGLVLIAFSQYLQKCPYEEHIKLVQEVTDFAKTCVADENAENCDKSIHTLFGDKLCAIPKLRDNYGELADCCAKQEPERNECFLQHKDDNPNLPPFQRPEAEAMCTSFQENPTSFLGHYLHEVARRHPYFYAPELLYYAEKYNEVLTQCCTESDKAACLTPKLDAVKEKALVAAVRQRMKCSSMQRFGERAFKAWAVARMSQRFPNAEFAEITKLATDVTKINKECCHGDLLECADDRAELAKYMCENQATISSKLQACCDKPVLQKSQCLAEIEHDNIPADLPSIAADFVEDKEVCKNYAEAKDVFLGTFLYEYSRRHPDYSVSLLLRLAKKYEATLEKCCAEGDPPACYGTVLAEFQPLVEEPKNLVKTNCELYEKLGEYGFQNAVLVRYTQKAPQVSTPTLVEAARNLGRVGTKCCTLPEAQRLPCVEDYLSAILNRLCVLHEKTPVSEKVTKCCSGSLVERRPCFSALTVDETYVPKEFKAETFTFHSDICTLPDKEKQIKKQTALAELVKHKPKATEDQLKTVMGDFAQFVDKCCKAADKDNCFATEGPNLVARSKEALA
The experiment in a line: SPR pH 7.4.

For assay [10], the target named is T2, human serum albumin. The assay is described as follows: SPR pH 7.4. This is another data set of the same source.
For assay [11], the target named is T6, cynomolgus serum albumin (Macaca fascicularis, UniProt A2V9Z4).
T6 chain: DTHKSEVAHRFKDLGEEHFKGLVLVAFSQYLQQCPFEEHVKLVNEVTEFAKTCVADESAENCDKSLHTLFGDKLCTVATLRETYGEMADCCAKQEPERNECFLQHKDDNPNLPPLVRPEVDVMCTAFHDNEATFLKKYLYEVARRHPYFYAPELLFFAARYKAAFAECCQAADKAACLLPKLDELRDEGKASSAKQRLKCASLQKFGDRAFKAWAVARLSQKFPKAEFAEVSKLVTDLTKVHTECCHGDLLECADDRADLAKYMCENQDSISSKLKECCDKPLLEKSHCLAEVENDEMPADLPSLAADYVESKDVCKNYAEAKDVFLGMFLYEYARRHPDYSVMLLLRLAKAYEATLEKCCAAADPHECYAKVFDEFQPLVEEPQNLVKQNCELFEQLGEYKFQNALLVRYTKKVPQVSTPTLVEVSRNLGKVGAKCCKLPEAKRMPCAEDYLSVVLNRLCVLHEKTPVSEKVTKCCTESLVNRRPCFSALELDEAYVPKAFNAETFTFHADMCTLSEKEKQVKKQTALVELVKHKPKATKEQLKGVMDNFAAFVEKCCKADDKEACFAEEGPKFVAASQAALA
The experiment in a line: SPR pH 7.4.

The target of assay [12] is T7, rabbit serum albumin (Oryctolagus cuniculus, UniProt P49065).
T7 chain: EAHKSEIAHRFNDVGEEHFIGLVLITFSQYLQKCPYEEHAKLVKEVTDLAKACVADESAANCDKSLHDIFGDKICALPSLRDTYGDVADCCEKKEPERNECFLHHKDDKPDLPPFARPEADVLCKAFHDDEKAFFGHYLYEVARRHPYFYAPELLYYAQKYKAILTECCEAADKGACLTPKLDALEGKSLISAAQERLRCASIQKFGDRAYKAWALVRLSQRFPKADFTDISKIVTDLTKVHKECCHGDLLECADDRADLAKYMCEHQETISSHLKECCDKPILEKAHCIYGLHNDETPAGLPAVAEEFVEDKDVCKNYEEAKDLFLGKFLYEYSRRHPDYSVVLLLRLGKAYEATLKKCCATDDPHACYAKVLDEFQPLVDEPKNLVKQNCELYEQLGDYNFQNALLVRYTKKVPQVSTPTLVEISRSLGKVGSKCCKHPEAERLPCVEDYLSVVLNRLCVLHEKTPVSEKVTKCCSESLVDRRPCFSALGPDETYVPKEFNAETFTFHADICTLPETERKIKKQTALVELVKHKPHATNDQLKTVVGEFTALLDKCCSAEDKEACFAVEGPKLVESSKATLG
The experiment in a line: SPR pH 7.4.

B1: SEQ ID NO:19 serum albumin binder (T023500029) (antibody, V domains shown)
VH: EVQLVESGGGVVQPGDSLRLSCAASGGTFSTYVMGWFRQAPGKEREFVSAISQNSIHTYYANSVKGRFTISRDNSKNTVYLQLNSLRPEDTALYYCAASRFTSWYTADYEYDYWGQGTLVTVSS
Broadly, the Kd is a measure of binding affinity in units of concentration. The low end stands for higher affinity, the high end for lower affinity. What is called koff is a measure of how fast the partners let go of each other. Lower therefore signals slow dissociation. Consider B1, for which the dissociation constant (Kd) in assay [1] is 45 nM; in assay [2], 0.27 nM; in [4], 1.2 nM; in assay [9], 0.067 nM; in [10], 0.44 nM; in assay [11], 0.45 nM. For the same molecule, the figures for the koff in [3], in assay [6] and in assay [7] were 0.0002 s⁻¹, 0.00032 s⁻¹ and 0.00051 s⁻¹, respectively. For the same molecule, the binding result in [5], in [8] and in assay [12] was “no binding” in each case.
